This note sets out measurements from patent publication US20220380459A1.

One test addresses human CD33 S128N (human) (UniProt P20138). As to the kind of experiment: SPR, Fab captured, 37C.
A further test deals with human CD33 R69G (human) (UniProt P20138). As to the kind of experiment: SPR, Fab captured, 37C.
Sequence of human CD33 R69G (human) (P20138 18-259 R69G): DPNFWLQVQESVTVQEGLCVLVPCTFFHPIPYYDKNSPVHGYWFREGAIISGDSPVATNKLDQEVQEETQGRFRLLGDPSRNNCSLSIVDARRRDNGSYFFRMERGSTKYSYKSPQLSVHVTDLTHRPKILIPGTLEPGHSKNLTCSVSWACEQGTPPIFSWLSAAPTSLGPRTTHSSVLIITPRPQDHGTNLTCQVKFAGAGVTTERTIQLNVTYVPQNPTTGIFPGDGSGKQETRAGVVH

Sequence of human CD33 S128N (human) (P20138 18-259 S128N): as the sequence (P20138 18-259 R69G) above, with G52R, S111N counted along it

B1: ADI-10161 Fab (Fab, V domains shown)
VH: EVQLVESGGGLVQPGGSLRLSCAASGFTFSSYWMSWVRQAPGKGLEWVANINQDGSEKYYVDSVKGRFTISRDNAKNSLYLQMNSLRAEDTAVYYCAREGGDSWYHAFDIWGQGTMVTVSS
VL: DIQMTQSPSSVSASVGDRVTITCRASQGISSWLAWYQQKPGKAPKLLIYAASNLQSGVPSRFSGSGSGTDFTLTISSLQPEDFATYYCQQKLSLPLTFGGGTKVEIK
As for B1, in the test with human CD33 S128N (human), the Kd is 63.6 nM, the koff stood at 0.0385 s⁻¹ and the kon was found to be 605000 M⁻¹ s⁻¹. Besides, in the test with human CD33 R69G (human), the Kd came to 48.9 nM, the koff is 0.0307 s⁻¹ and the kon came out at 629000 M⁻¹ s⁻¹.

B2: ADI-11839 Fab (Fab, V domains shown)
VH: QVQLVQSGAEVKKPGASVKVSCKASGYTFSNYYMHWVRQAPGQGLEWMGWINPFSGGTRYAQKFQGRVTMTRDTSTSTVYMELSSLRSEDTAVYYCARDVGSSAYYYMDVWGKGTTVTVSS
VL: DIQMTQSPSSVSASVGDRVTITCEASKGISSWLAWYQQKPGKAPKLLIYAASDLQSGVPSRFSGSGSGTDFTLTISSLQPEDFATYYCQQAFLFPPTFGGGTKVEIK
In the test with human CD33 S128N (human), B2 showed a Kd of 29.5 nM, a dissociation rate constant (koff) of 0.0284 s⁻¹ and a kon of 963000 M⁻¹ s⁻¹.

B3: ADI-10177 Fab (Fab, V domains shown)
VH: EVQLVESGGGLVQPGGSLRLSCAASGFTFSSYWMSWVRQAPGKGLEWVANIKQDGSEKYYVDSVKGRFTISRDNAKNSLYLQMNSLRAEDTAVYYCARPLNAGELDVWGQGTMVTVSS
VL: DIQMTQSPSTLSASVGDRVTITCRASQSISSWLAWYQQKPGKAPKLLIYEASSLESGVPSRFSGSGSGTEFTLTISSLQPDDFATYYCQQLESYPLTFGGGTKVEIK
B3: the kon with human CD33 R69G (human) was determined as 230000 M⁻¹ s⁻¹.

B4: ADI-11815 Fab (Fab, V domains shown)
VH: QVQLVQSGAEVKKPGASVKVSCKASGYTFGTYYMHWVRQAPGQGLEWMGIINPSRGSTVYAQKFQGRVTMTRDTSTSTVYMELSSLRSEDTAVYYCARGAGYDDEDMDVWGKGTTVTVSS
VL: DIQMTQSPSSVSASVGDRVTITCRASQGIDSWLAWYQQKPGKAPKLLIYAASSLQSGVPSRFSGSGSGTDFTLTISSLQPEDFATYYCQQAHSYPLTFGGGTKVEIK
Consider B4, for which, in the test with human CD33 R69G (human), the Kd was 4.34 nM, the koff worked out at 0.0013 s⁻¹ and the kon turned out to be 300000 M⁻¹ s⁻¹.

B5: ADI-11812 Fab (Fab, V domains shown)
VH: QVQLVQSGAEVKKPGASVKVSCKASGYTFEIYYMHWVRQAPGQGLEWMGIINPSSGSTVYAQKFQGRVTMTRDTSTSTVYMELSSLRSEDTAVYYCARGAGYDDEDMDVWGKGTTVTVSS
VL: DIQMTQSPSSVSASVGDRVTITCRASQGIDSWLAWYQQKPGKAPKLLIYAASSLQSGVPSRFSGSGSGTDFTLTISSLQPEDFATYYCQQAHSYPLTFGGGTKVEIK
As for B5, in the test with human CD33 S128N (human), the Kd is 2.01 nM, the koff worked out at 0.00112 s⁻¹ and the kon came out at 556000 M⁻¹ s⁻¹. In the test with human CD33 R69G (human), the Kd turned out to be 6.74 nM, the koff came out at 0.00228 s⁻¹ and the association rate constant (kon) was 338000 M⁻¹ s⁻¹.

B6: ADI-11809 Fab (Fab, V domains shown)
VH: EVQLVESGGGLVQPGGSLRLSCAASGFTFPSYWMSWVRQAPGKGLEWVATIKRDGSEKGYVDSVKGRFTISRDNAKNSLYLQMNSLRAEDTAVYYCARPLNAGELDVWGQGTMVTVSS
VL: DIQMTQSPSTLSASVGDRVTITCRASQSISSWLAWYQQKPGKAPKLLIYEASSLESGVPSRFSGSGSGTEFTLTISSLQPDDFATYYCQQSQSYPPITFGGGTKVEIK
In the test with human CD33 R69G (human), B6 gave a Kd of 0.22 nM, a koff of 0.000179 s⁻¹ and a kon of 815000 M⁻¹ s⁻¹.

B7: ADI-11807 Fab (Fab, V domains shown)
VH: EVQLVESGGGLVQPGGSLRLSCAASGFTFGSYWMSWVRQAPGKGLEWVATIKQDGSEKSYVDSVKGRFTISRDNAKNSLYLQMNSLRAEDTAVYYCARPLNAGELDVWGQGTMVTVSS
VL: DIQMTQSPSTLSASVGDRVTITCRASQSISSWLAWYQQKPGKAPKLLIYEASSLESGVPSRFSGSGSGTEFTLTISSLQPDDFATYYCQQSQSYPPITFGGGTKVEIK
In the test with human CD33 R69G (human), B7 displayed a dissociation constant Kd of 0.43 nM, a koff of 0.000259 s⁻¹ and a kon of 597000 M⁻¹ s⁻¹.

B8: ADI-10157 Fab (Fab, V domains shown)
VH: QVQLQESGPGLVKPSETLSLTCTVSGGSISSYYWSWIRQPPGKGLEWIGSIYYSGSTNYNPSLKSRVTISVDTSKNQFSLKLSSVTAADTAVYYCARVGGVYSTIETYGMDVWGQGTTVTVSS
VL: EIVMTQSPATLSVSPGERATLSCRASQSVSSNLAWYQQKPGQAPRLLIYGASTRATGIPARFSGSGSGTEFTLTISSLQSEDFAVYYCQQYTVYPPTFGGGTKVEIK
As for B8, in the test with human CD33 S128N (human), the Kd is 163 nM, the koff stood at 0.00924 s⁻¹ and the kon is 56500 M⁻¹ s⁻¹. In the test with human CD33 R69G (human), this molecule displayed a Kd of 17.8 nM, a koff of 0.0287 s⁻¹ and a kon of 1.56e+06 M⁻¹ s⁻¹.

B9: ADI-11835 Fab (Fab, V domains shown)
VH: QLQLQESGPGLVKPSETLSLTCTVSGGSISSTDYYWGWIRQPPGKGLEWIGSIGYSGTYYNPSLKSRVTISVDTSKNQFSLKLSSVTAADTAVYYCARETAHDVHGMDVWGQGTTVTVSS
VL: EIVLTQSPATLSLSPGERATLSCRASHSVYSYLAWYQQKPGQAPRLLIYDASNRATGIPARFSGSGSGTDFTLTISSLEPEDFAVYYCQQYDNLPTFGGGTKVEIK
In the test with human CD33 R69G (human), B9 registered a Kd of 0.67 nM, a koff of 0.00205 s⁻¹ and a kon of 3.07e+06 M⁻¹ s⁻¹.

B10: ADI-10159 Fab (Fab, V domains shown)
VH: EVQLVESGGGLVQPGGSLRLSCAASGFTFSSYGMSWVRQAPGKGLEWVANIKQDGSEKYYVDSVKGRFTISRDNAKNSLYLQMNSLRAEDTAVYYCAREGGPYYDSSGYFVYYGMDVWGQGTTVTVSS
VL: DIQMTQSPSTLSASVGDRVTITCRASQSISSWLAWYQQKPGKAPKLLIYDASSLESGVPSRFSGSGSGTEFTLTISSLQPDDFATYYCQQYESFPTFGGGTKVEIK
In the test with human CD33 R69G (human), B10 came in with a Kd of 5.68 nM, a koff of 0.00243 s⁻¹ and a kon of 426000 M⁻¹ s⁻¹.

B11: ADI-11819 Fab (Fab, V domains shown)
VH: EVQLVESGGGLVKPGGSLRLSCAASGFTFSSYAMSWVRQAPGKGLEWVSSISSSSEGIYYADSVKGRFTISRDNAKNSLYLQMNSLRAEDTAVYYCAREGGPYYDSSGYFVYYGMDVWGQGTTVTVSS
VL: DIQMTQSPSTLSASVGDRVTITCRASNSISSWLAWYQQKPGKAPKLLIYEASSTKSGVPSRFSGSGSGTEFTLTISSLQPDDFATYYCQQYDDLPTFGGGTKVEIK
In the test with human CD33 R69G (human), B11 yielded a Kd of 0.09 nM, a koff of 0.000244 s⁻¹ and an association rate constant (kon) of 2.78e+06 M⁻¹ s⁻¹.

B12: ADI-11776 Fab (Fab, V domains shown)
VH: EVQLLESGGGLVQPGGSLRLSCAASGFTFSKYTMSWVRQAPGKGLEWVSAIVGSGESTYFADSVKGRFTISRDNSKNTLYLQMNSLRAEDTAVYYCAREGGPYYDSSGYFVYYGMDVWGQGTTVTVSS
VL: DIQMTQSPSTLSASVGDRVTITCRASQSISSWLAWYQQKPGKAPKLLIYKASSLESGVPSRFSGSGSGTEFTLTISSLQPDDFATYYCQQYDDLPTFGGGTKVEIK
In the test with human CD33 R69G (human), B12 returned a dissociation constant (Kd) of 0.22 nM, a koff of 0.000426 s⁻¹ and a kon of 1.98e+06 M⁻¹ s⁻¹.

B13: ADI-11830 Fab (Fab, V domains shown)
VH: EVQLVESGGGLVQPGGSLRLSCAASGFTFSSYWMSWVRQAPGKGLEWVANINTDGSEVYYVDSVKGRFTISRDNAKNSLYLQMNSLRAEDTAVYYCARDVGPGIAYQGHFDYWGQGTLVTVSS
VL: DIQMTQSPSSLSASVGDRVTITCRASQVIYSYLNWYQQKPGKAPKLLIYAASSLKSGVPSRFSGSGSGTDFTLTISSLQPEDFATYYCQQVYDTPLTFGGGTKVEIK
In the test with human CD33 R69G (human), B13 came in with a dissociation constant (Kd) of 2.94 nM, a koff of 0.00663 s⁻¹ and a kon of 2.27e+06 M⁻¹ s⁻¹.

B14: ADI-11828 Fab (Fab, V domains shown)
VH: EVQLVESGGGLVQPGGSLRLSCAASGFTFSSYWMSWVRQAPGKGLEWVANINQDGSEVYYVDSVKGRFTISRDNAKNSLYLQMNSLRAEDTAVYYCARDVGPGIAYQGHFDYWGQGTLVTVSS
VL: DIQMTQSPSSLSASVGDRVTITCRASQSIYYYLNWYQQKPGKAPKLLIYAASSRQSGVPSRFSGSGSGTDFTLTISSLQPEDFATYYCQQVYDTPLTFGGGTKVEIK
In the case of B14, in the test with human CD33 S128N (human), the Kd worked out at 5.41 nM, the koff worked out at 0.00742 s⁻¹ and the kon was determined as 1.37e+06 M⁻¹ s⁻¹. In the test with human CD33 R69G (human), this molecule returned a Kd of 6.03 nM, a koff of 0.007 s⁻¹ and a kon of 1.16e+06 M⁻¹ s⁻¹.

B15: ADI-11825 Fab (Fab, V domains shown)
VH: EVQLVESGGGLVQPGGSLRLSCAASGFTFGGYWMSWVRQAPGKGLEWVANINQDGSEEYYVDSVKGRFTISRDNAKNSLYLQMNSLRAEDTAVYYCAREANYYGNVGDDYWGQGTLVTVSS
VL: DIQMTQSPSSLSASVGDRVTITCRASQSIYNYLNWYQQKPGKAPKLLIYAASNLHSGVPSRFSGSGSGTDFTLTISSLQPEDFATYYCQQAFHVPITFGGGTKVEIK
In the test with human CD33 S128N (human), B15 returned a Kd of 3.09 nM, an off-rate constant (koff) of 0.00649 s⁻¹ and a kon of 2.1e+06 M⁻¹ s⁻¹. In the test with human CD33 R69G (human), the Kd was found to be 3.74 nM, the koff was determined as 0.00695 s⁻¹ and the kon worked out at 1.86e+06 M⁻¹ s⁻¹.

B16: ADI-11826 Fab (Fab, V domains shown)
VH: EVQLVESGGGLVQPGGSLRLSCAASGFTFPGYWMSWVRQAPGKGLEWVANINQDGSEVYYVDSVKGRFTISRDNAKNSLYLQMNSLRAEDTAVYYCAREANYYGNVGDDYWGQGTLVTVSS
VL: DIQMTQSPSSLSASVGDRVTITCRASQSIYNYLNWYQQKPGKAPKLLIYAASSTQSGVPSRFSGSGSGTDFTLTISSLQPEDFATYYCQQAFHVPITFGGGTKVEIK
On to B16, for which, in the test with human CD33 S128N (human), the Kd was 2.65 nM, the koff turned out to be 0.00574 s⁻¹ and the association rate constant (kon) stood at 2.17e+06 M⁻¹ s⁻¹. In the test with human CD33 R69G (human), this molecule had a Kd of 3.83 nM, a koff of 0.00723 s⁻¹ and a kon of 1.89e+06 M⁻¹ s⁻¹.
